Source: paper PMC2896269
Several values for one entry are separate records, joined by “and”; a condition that tells them apart may be missing. Identical values can stand only once.

Key:
[1] = target: LRRTM2 (UniProt O43300); settings: cited from earlier work
[2] = target: HA-LRRTM2 (UniProt Q8BGA3); assay: immunostaining of cells or tissue
HA-LRRTM2, sequence (Q8BGA3 34-515): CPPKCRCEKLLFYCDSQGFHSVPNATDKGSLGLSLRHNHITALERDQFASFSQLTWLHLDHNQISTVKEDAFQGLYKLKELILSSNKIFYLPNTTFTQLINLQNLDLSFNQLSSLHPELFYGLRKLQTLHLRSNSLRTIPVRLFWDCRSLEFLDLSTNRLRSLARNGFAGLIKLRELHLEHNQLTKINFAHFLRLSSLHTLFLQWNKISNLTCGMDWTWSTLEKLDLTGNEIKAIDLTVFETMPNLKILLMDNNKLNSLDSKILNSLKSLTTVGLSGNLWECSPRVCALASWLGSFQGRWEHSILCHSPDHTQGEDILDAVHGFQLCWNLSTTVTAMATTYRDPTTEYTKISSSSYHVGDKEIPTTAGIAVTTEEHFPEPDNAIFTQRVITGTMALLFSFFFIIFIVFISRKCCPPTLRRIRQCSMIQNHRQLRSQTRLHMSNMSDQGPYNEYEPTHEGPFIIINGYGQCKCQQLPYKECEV

Neurexin-1beta(-S4), sequence (P58400 91-289): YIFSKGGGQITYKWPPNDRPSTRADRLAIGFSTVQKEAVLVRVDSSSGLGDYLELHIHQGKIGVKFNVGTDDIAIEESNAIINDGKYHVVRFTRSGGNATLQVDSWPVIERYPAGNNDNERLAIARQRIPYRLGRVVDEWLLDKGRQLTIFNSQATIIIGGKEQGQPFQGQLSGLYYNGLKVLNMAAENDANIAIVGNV
LRRTM2, sequence (O43300 34-422): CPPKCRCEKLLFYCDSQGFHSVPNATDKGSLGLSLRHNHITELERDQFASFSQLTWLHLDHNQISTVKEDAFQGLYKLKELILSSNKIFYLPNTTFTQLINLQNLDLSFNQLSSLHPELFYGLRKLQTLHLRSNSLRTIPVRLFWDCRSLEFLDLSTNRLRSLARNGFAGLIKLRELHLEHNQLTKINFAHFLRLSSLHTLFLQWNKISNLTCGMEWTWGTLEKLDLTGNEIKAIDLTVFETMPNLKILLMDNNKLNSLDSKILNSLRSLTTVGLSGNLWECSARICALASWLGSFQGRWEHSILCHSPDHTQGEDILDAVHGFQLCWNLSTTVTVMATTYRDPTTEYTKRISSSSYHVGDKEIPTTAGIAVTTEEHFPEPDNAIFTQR

Kd [2]	Substance	Kd [1]
–	Neurexin-1beta(-S4) (from UniProt P58400)	7 nM and 5.8 nM
19.9 nM	Nrx1β(−S4)-Fc (Fc fusion)	–
